From publication PMC3347502

Target: long-chain neurotoxin NTII/I
Assay: NMR titration

## α7ED/C116S/DTES (extracellular domain of human α7 nicotinic acetylcholine receptor with Cys116Ser an (domain or fragment)
  stoichiometry N: 2
